Measured values: article PMC9599533

Biological target: α-subunit of the M. tuberculosis open gate 20S core particle (M. tuberculosis) (UniProt P9WHU1)
Assay: cryo-EM structure

Substance: α-subunit of the M. tuberculosis open gate 20S core particle (from UniProt P9WHU1 9-248) (domain or fragment)
- stoichiometry N: 7
